# What was measured:
# [1] = test system: T1, XssQ (Synechocystis sp. PCC 6803), ORF:81bb7109; assay: EMSA; details: 30 min at room temperature, buffer, salt and pH not given (refers to Hirose 2010, Maeda 2014, Midorikawa 2009)
# T1 sequence: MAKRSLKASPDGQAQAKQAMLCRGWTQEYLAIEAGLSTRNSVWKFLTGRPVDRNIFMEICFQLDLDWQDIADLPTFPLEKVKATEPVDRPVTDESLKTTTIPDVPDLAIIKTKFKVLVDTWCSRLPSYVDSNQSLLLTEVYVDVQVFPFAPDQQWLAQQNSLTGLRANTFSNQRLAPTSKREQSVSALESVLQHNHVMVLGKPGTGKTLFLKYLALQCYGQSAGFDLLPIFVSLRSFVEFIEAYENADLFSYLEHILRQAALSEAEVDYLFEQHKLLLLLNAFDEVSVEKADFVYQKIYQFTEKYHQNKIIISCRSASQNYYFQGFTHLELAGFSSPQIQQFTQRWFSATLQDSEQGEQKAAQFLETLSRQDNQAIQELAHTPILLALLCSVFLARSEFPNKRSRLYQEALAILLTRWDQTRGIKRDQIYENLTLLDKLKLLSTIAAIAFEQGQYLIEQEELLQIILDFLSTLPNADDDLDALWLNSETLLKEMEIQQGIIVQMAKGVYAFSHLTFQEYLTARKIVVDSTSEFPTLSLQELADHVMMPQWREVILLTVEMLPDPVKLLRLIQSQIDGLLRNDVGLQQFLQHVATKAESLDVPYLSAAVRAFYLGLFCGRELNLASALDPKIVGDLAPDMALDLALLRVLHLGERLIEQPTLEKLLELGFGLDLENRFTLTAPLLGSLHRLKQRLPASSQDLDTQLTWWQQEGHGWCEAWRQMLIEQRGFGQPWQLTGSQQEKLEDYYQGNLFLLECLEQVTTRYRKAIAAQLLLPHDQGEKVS
# [2] = test system: T1, XssQ (Synechocystis sp. PCC 6803), ORF:81bb7109; assay: competition; details: EMSA, 30 min at room temperature; buffer, salt and pH not given (refers to Hirose 2010, Maeda 2014, Midorikawa 2009)
sequence,measurement,setting,value
ATCTTTAAAGCCCCAGTCCCGATCGCCAGCGGTTAAACAGGTAAAAAAACAGAAGCAGAAATCTAGTGAGCAGGGGAAACTCAAAACCAAGCCGGGGCGCTCAAAGTCAGGGTCAGGCAAAAGGTCTAAAGTTAGACGCAAAGTTGTACATAGGGCAGGCACGAAATCAGACAGCGATCCATCAAGCTAAGAACAGGTTGCAATTGCCCATCTCACGATCGCCGTCACGCCCCCATGAACACTTCTTTCCT (double strand) [xssE upstream probe / native competitor],binding,[1],binds
same,binding,[2],binds
